{"source": "patent US20260234121A1", "about": "“DERIVATIVES, IMMUNOGENS, AND ANTIBODIES AND USE OF THE SAME IN DETECTION OF ECSTASY-CLASS COMPOUNDS” (Siemens Healthcare Diagnostics Inc., priority 2023, published 2026)", "key": {"[1]": {"assay": "Competitive ELISA screening of hybridoma supernatants on E1-OVA (55), inhibitor MDMA", "assay_type": "binding", "settings": "for E1-OVA (55) Binding, OD650 nm +MDMA: hybridoma supernatant in the presence of 10 μg/mL MDMA; for % Inhibition by 10 μg/mL of MDMA: inhibition of mAb/E1-OVA (55) binding", "experimental": "(§1) Competitive ELISA was used to assess the presence of anti-Ecstasy-class antibodies in animal sera, hybridoma supernatants, and monoclonal antibody (mAb) samples as well as to estimate the level of antibody cross reactivity to amphetamine (Amph) and methamphetamine (mAmph). Antisera and antibody samples were used at the dilution giving a response of about OD=1 at 650 nm (OD650 nm) in an indirect ELISA. Hybridoma supernatants were diluted 1:2 in PBS. (±)-MDMA, (±)-MDA, (±)-amphetamine, and (±)-methamphetamine were used as inhibitors (Cerilliant Corporation, Round Rock, TX). Microtiter ELISA plates were coated and blocked as described above for indirect ELISA. The inhibitors were serially diluted in PBS. 25 μL of the diluted inhibitor was mixed with 25 μL of fixed appropriate antiserum or antibody sample dilution. The mixture was incubated over the E1-OVA (55) solid phase for 1 h. The plates were washed as described above and the bound antibodies were detected with anti-rabbit or anti-mouse IgG HRP-conjugates and TMB substrate as described above.\n(§2) The supernatants were screened in a competitive ELISA for the presence of anti-ecstasy compound monoclonal antibodies (mAbs) as follows. 25 μL of the hybridoma supernatant was mixed with equal volume of PBS alone or containing 20 μg/mL inhibitor (MDA or MDMA) were incubated for 1 h in the wells of E1-OVA (55) coated ELISA plates. The plates were washed and the presence of bound mAbs were detected using goat anti-mouse IgG (Fc)-HRP conjugate and TMB substrate as described above. The level of inhibition of mAb/E1-OVA (55) binding in the presence of the inhibitor was estimated using a Percent (%) Inhibition calculated by the below formula:\n(§3) [formula] • where “OD650 nm w/o Inhibitor” is the binding response of the antibody sample diluted in PBS alone (with no inhibitor), and the “OD650 nm with Inhibitor” is the binding response of the same antibody sample in the presence of 10 μg/mL of inhibitor (i.e., MDA or MDMA)."}, "[2]": {"assay": "Competitive ELISA screening of hybridoma supernatants on E1-OVA (55), inhibitor MDA", "assay_type": "binding", "settings": "for E1-OVA (55) Binding, OD650 nm +MDA: hybridoma supernatant in the presence of 10 μg/mL MDA; for % Inhibition by 10 μg/mL of MDA: inhibition of mAb/E1-OVA (55) binding", "experimental": "as §1, §2, §3"}, "[3]": {"assay": "Competitive ELISA of purified antibodies on E1-OVA (55), MDMA and MDA reactivity", "assay_type": "binding", "settings": "10,000-0.1 ng/mL range of drug concentration", "experimental": "as §1\n(§4) The anti-ecstasy class mAbs were purified from clarified and filtered hybridoma culture supernatants on a recombinant Protein A Sepharose Fast Flow (GE Life Sciences, Boston USA), dialyzed against PBS containing 0.02% sodium azide and stored at 4° C. The purified mAbs were tested for MDA and MDMA reactivity as well as amphetamine (Amph) and methamphetamine (mAmph) cross reactivity in a competitive assay."}, "[4]": {"tested_on": "E1-OVA (55)", "assay": "ELISA binding of hybridoma supernatant to E1-OVA (55) coated plates, without inhibitor", "settings": "hybridoma supernatant mixed with PBS alone", "experimental": "All ELISA steps were performed at rt. Wells of a Nunc Maxi-Sorp™ flat-bottom ELISA plates (ThermoFisher Scientific, Waltham, MA) were coated with 50 μL E1-OVA (55), E2-OVA (65), and E3-OVA (72) at a concentration of 1 μg/mL in PBS for 1 h. The plates were flicked dried and remaining binding sites were blocked with 200 μL per well of blocking solution (0.5% casein, 0.05% (v/v) Tween 20 in PBS) for one hour. Plates were washed six times with MilliQ water containing 0.05% (v/v) Tween 20 on Biotek 405 LS plate washer equipped with microplate Biostacker 3 (Biotek, Winooski, VT). 50 μL of serially diluted antibody samples (serial dilutions of serum, hybridoma supernatant, or monoclonal antibodies in PBS) were added to each well and incubated for one hour. Unbound antibodies were removed by washing as described above, and 50 μL of secondary goat anti-rabbit IgG HRP or goat anti-mouse IgG (Fc)-HRP conjugate (ThermoFisher Scientific, USA), diluted 1:3,000 in the blocking solution was added to each well for detection bound rabbit or mouse antibody, respectively. Plates were incubated for one hour, washed and 100 μL of TMB substrate (Moss, Pasadena, MD) was added for 15 min to determine bound peroxidase. Optical density (OD) of the samples at 650 nm was measured using an ELISA plate reader (Molecular Devices LLC., San Jose, CA). The titer of each serum sample was designated as the maximum dilution that yielded at least twice the absorbance of the same dilution of the nonimmune control serum.\nas §2\n[formula] • where “OD650 nm w/o Inhibitor” is the binding response of the antibody sample diluted in PBS alone (with no inhibitor), and the “OD650 nm with Inhibitor” is the binding response of the same antibody sample in the presence of 10 μg/mL of inhibitor (i.e., MDA or MDMA). […]"}, "[5]": {"assay": "Competitive ELISA of purified antibodies on E1-OVA (55), amphetamine and methamphetamine cross reactivity", "assay_type": "binding", "experimental": "as §1, §4"}, "[6]": {"assay": "Prototype EMIT ecstasy assay, cross-reactivity with methamphetamine", "assay_type": "biochemical", "settings": "conjugate Compound 58; negative urine pool"}, "[7]": {"assay": "Prototype EMIT ecstasy assay, cross-reactivity with amphetamine", "assay_type": "biochemical", "settings": "conjugate Compound 58; negative urine pool"}}, "data": [{"molecule": "178K 1B2 mAb: mouse monoclonal antibody raised against E1-KLH (56); IgG2b, κ; heavy chain SEQ ID NO 84, light chain SEQ ID NO 108 (antibody) heavy: MNFGLSLIFLALILKGVQCEVQLVESGGDLVKPGGSLKLSCAASGFTFTNYVMSWVRQTPDKRLEWVATINSGGRYAYYPDSVKGRFTISRDNAKNTLYLQMSSLKSEDTAMYYCAGGNNLDYWGQGTTLTVSSAKTTPPSVYPLAPGCGDTTGSSVTLGCLVKGYFPESVTVTWNSGSLSSSVHTFPALLQSGLYTMSSSVTVPSSTWLSQTVTCSVAHPASSTTVDKKLEPSGPISTIKPCPPCKECHKCPAPNLEGGPSVFIFPPNIKDVLMISLTPKVTCVVVDVSEDDPDVQISWFVNNVEVHTAQTQTHREDYNSTIRVVSALPIQHQDWMSGKEFKCKVNNKDLPSPIERTISKIKGLVRAPQVYILPPPAEQLSRKDVSLTCLVVGFNPGDISVEWTSNGHTEENYKDTAPILDSDGSYFIYSKLNMKTSKWEKTDSFSCNVRHEGLKNNYLKKTISRSPGK light: MRFSAQLLGLLVLWIPGSTADIVMTQAAFSNPVTLGTSASISCRSSKSLLQRNGITYLYWYLQKPGQSPQLLIYRLSNLASGVPDRFSSSGSGTDFTLRISRVEAEDVGVYYCGQDLELPYTFGGGTKLEIKRADAAPTVSIFPPSSEQLTSGGASVVCFLNNFYPKDINVKWKIDGSERQNGVLNSWTDQDSKDSTYSMSSTLTLTKDEYERHNSYTCEATHKTSTSPIVKSFNRNEC", "values": [{"measurement": "E1-OVA (55) Binding, OD650 nm +MDMA", "setting": "[1]", "value": 0.667, "unit": "OD650 nm"}, {"measurement": "% Inhibition by 10 μg/mL of MDMA", "setting": "[1]", "value": 83, "unit": "%"}, {"measurement": "E1-OVA (55) Binding, OD650 nm +MDA", "setting": "[2]", "value": 0.730, "unit": "OD650 nm"}, {"measurement": "% Inhibition by 10 μg/mL of MDA", "setting": "[2]", "value": 82, "unit": "%"}, {"measurement": "relative sensitivity to MDMA and MDA in competitive ELISA", "setting": "[3]", "value": "bind MDMA stronger than MDA"}, {"measurement": "E1-OVA (55) Binding, OD650 nm w/o inhib", "setting": "[4]", "value": 4.000, "unit": "OD650 nm"}, {"measurement": "cross reactivity in the presence of 1,000 ng/ml of Amph or mAmph", "setting": "[5]", "value": "do not show any significant cross reactivity"}]}, {"molecule": "178H 4B1 mAb: mouse monoclonal antibody raised against E1-KLH (56); IgG2b, κ; heavy chain SEQ ID NO 83, light chain SEQ ID NO 107 (antibody) heavy: MNFGLSLIFLALILKGLQCEVQLVESGGDLVKPGGSLKLSCAASGFTFSRNVMSWVRQTPDKRLEWVATISSGGVHTYYLDSVKGRFTIFRDNAKNTLYLQMNSLQSEDTAMYYCAAGNALDYWGQGTSVTVSSAKTTPPSVYPLAPGCGDTTGSSVTLGCLVKGYFPESVTVTWNSGSLSSSVHTFPALLQSGLYTMSSSVTVPSSTWPSQTVTCSVAHPASSTTVDKKLEPSGPISTINPCPPCKECHKCPAPNLEGGPSVFIFPPNIKDVLMISLTPKVTCVVVDVSEDDPDVRISWFVNNVEVHTAQTQTHREDYNSTIRVVSALPIQHQDWMSGKEFKCKVNNKDLPSPIERTISKIKGLVRAPQVYILPPPAEQLSRKDVSLTCLVVGFNPGDISVEWTSNGHTEENYKDTAPVLDSDGSYFIYSKLDIKTSKWEKTDSFSCNVRHEGLKNYYLKKTISRSPGK light: MRFSAQLLGLLVLWIPGSTADIMMTQAAFSNPVTLGTSGSISCRSSKSLLHSNGITYLYWYLQKPGQSPQLLIYQMSNLASGVPDRFSSSGSGTDFTLRISRVEAEDVGVYYCGQDLELPYSFGSGTKLEIKRADAAPTVSIFPPSSEQLTSGGASVVCFLNNFYPKDINVKWKIDGSERQNGVLNSWTDQDSKDSTYSMSSTLTLTKDEYERHNSYTCEATHKTSTSPIVKSFNRNEC", "values": [{"measurement": "Concentrations (μg/mL) of Structurally Related Compounds Equivalent to 500 ng/mL MDMA Cutoffs, (+/−) mAmph", "setting": "[6]", "value": "40 to 50", "unit": "µg/mL"}, {"measurement": "E1-OVA (55) Binding, OD650 nm +MDMA", "setting": "[1]", "value": 0.093, "unit": "OD650 nm"}, {"measurement": "% Inhibition by 10 μg/mL of MDMA", "setting": "[1]", "value": 98, "unit": "%"}, {"measurement": "Concentrations (μg/mL) of Structurally Related Compounds Equivalent to 500 ng/mL MDMA Cutoffs, (+/−) Amph", "setting": "[7]", "value": 40, "unit": "µg/mL"}, {"measurement": "E1-OVA (55) Binding, OD650 nm +MDA", "setting": "[2]", "value": 0.105, "unit": "OD650 nm"}, {"measurement": "% Inhibition by 10 μg/mL of MDA", "setting": "[2]", "value": 97, "unit": "%"}, {"measurement": "relative sensitivity to MDMA and MDA in competitive ELISA", "setting": "[3]", "value": "bind MDMA stronger than MDA"}, {"measurement": "E1-OVA (55) Binding, OD650 nm w/o inhib", "setting": "[4]", "value": 3.164, "unit": "OD650 nm"}]}, {"molecule": "178K 4E11 mAb: mouse monoclonal antibody raised against E1-KLH (56); IgG2b, κ; heavy chain SEQ ID NO 89, light chain SEQ ID NO 113 (antibody) heavy: MNFGLSLIFLALILKGVQCEVQLVESGGDLVKPGGSLKLSCAASGFTFSNYVMSWVRQTPDMRLEWVATINSGGRYTYYPDSVKGRFTISRDNAKNTLYLQMNSLKSEDTAIYYCAGGNNLDYWGQGTTLTVSSAKTTPPSVYPLAPGCGDTTGSSVTLGCLVKGYFPESVTVTWNSGSLSSSVHTFPALLQSGLYTMSSSVTVPSSTWLSQTVTCSVAHPASSTTVDKKLEPSGPISTIKPCPPCKECHKCPAPNLEGGPSVFIFPPNIKDVLMISLTPKVTCVVVDVSEDDPDVQISWFVNNVEVHTAQTQTHREDYNSTIRVVSALPIQHQDWMSGKEFKCKVNNKDLPSPIERTISKIKGLVRAPQVYILPPPAEQLSRKDVSLTCLVVGFNPGDISVEWTSNGHTEENYKDTAPILDSDGSYFIYSKLNMKTSKWEKTDSFSCNVRHEGLKNNYLKKTISRSPGK light: MRFSAQLLGLLVLWIPGSTADIVMTQAAFSNPVTLGTSASISCRSSKSLLQRNGITYLYWYLQKPGQSPQLLIYRMSNLASGVPDRFSSSGSGTDFTLRISRVEAEDVGVYYCGQDLELPYTFGGGTKLEIKRADAAPTVSIFPPSSEQLTSGGASVVCFLNNFYPKDINVKWKIDGSERQNGVLNSWTDQDSKDSTYSMSSTLTLTKDEYERHNSYTCEATHKTSTSPIVKSFNRNEC", "values": [{"measurement": "Concentrations (μg/mL) of Structurally Related Compounds Equivalent to 500 ng/mL MDMA Cutoffs, (+/−) mAmph", "setting": "[6]", "value": "50 to 60", "unit": "µg/mL"}, {"measurement": "E1-OVA (55) Binding, OD650 nm +MDMA", "setting": "[1]", "value": 0.088, "unit": "OD650 nm"}, {"measurement": "% Inhibition by 10 μg/mL of MDMA", "setting": "[1]", "value": 95, "unit": "%"}, {"measurement": "Concentrations (μg/mL) of Structurally Related Compounds Equivalent to 500 ng/mL MDMA Cutoffs, (+/−) Amph", "setting": "[7]", "value": "40 to 45", "unit": "µg/mL"}, {"measurement": "E1-OVA (55) Binding, OD650 nm +MDA", "setting": "[2]", "value": 0.091, "unit": "OD650 nm"}, {"measurement": "% Inhibition by 10 μg/mL of MDA", "setting": "[2]", "value": 95, "unit": "%"}, {"measurement": "E1-OVA (55) Binding, OD650 nm w/o inhib", "setting": "[4]", "value": 1.930, "unit": "OD650 nm"}, {"measurement": "cross reactivity in the presence of 1,000 ng/ml of Amph or mAmph", "setting": "[5]", "value": "do not show any significant cross reactivity"}]}]}
